B1: human full-length p50^Cdc37 (residues 1-378) (natural protein)
chain: MVDYSVWDHIEVSDDEDETHPNIDTASLFRWRHQARVERMEQFQKEKEELDRGCRECKRKVAECQRKLKELEVAEGGKAELERLQAEAQQLRKEERSWEQKLEEMRKKEKSMPWNVDTLSKDGFSKSMVNTKPEKTEEDSEEVREQKHKTFVEKYEKQIKHFGMLRRWDDSQKYLSDNVHLVCEETANYLVIWCIDLEVEEKCALMEQVAHQTIVMQFILELAKSLKVDPRACFRQFFTKIKTADRQYMEGFNDELEAFKERVRGRAKLRIEKAMKEYEEEERKKRLGPGGLDPVEVYESLPEELQKCFDVKDVQMLQDAISKMDPTDAKYHMQRCIDSGLWVPNSKASEAKEGEEAGPGDPLLEAVPKTGDEKDVSV
B2: human full-length p50^Cdc37 (residues 1-378), Q16543 1-378 (natural protein)
chain: B1 chain

Columns and labels:
[1] = target: the different Hsp90 proteins; experiment: ITC; p50^Cdc37 (200 µM) titrated into Hsp90 (20 µM); 50 mM HEPES pH 7.5, 10 mM MgCl2, 30 °C
[2] = target: T1, human full-length p50^Cdc37 (residues 1-378) (human), Q16543; experiment: SEC; analytical Superdex200 10/300 GL, room temperature, 0.3 mL/min; 85 µM protein in 50 mM HEPES pH 7.5, 50 mM KCl, 5 mM MgCl2, 1 mM DTT; fractions on SDS-PAGE; conditions: remark: other sources report otherwise
T1 chain: B1 chain

Row | Binder | Kd [1] [nM] | stoichiometry N [2]
1 | B1 | 1100 to 1900 | 
2 | B2 |  | 2

— publication PMC4601640, “Stability of the Human Hsp90-p50^Cdc37 Chaperone Complex against Nucleotides and Hsp90 Inhibitors, and the Influence of Phosphorylation by Casein Kinase 2” (Molecules, 2015)
